Experimental data taken from the supplement of paper PMC10126150.
± gives the standard deviation of the averaged measurements.

Test system: ATP
Experiment: switch fluorescence ratio, 500 uM ATP over buffer (Cy3 cluster intensity, sum of 5 cycles each) (fold (ratio)); higher = stronger signal-on switching upon ATP binding; sequences stand for … in TCGTCGGCAGCGTCAGATGTGTATAAGAGACAGTTTTTTTTTTTTTTTTTTTTTTTTT…TC
Conditions: aptamer strand: ATP DNA aptamer (quencher-CACCTGGGGGAGTATTGCGGAGGAAGG + anchor), 100 nM annealed; ATP concentration: 500 uM
Procedure, shortened: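 Clusters with intensities outside 100-1000 RFU were excluded. The remaining Cy3-labelled switching-strand clusters on a modified Illumina MiSeq flow-cell had been annealed to 100 nM quencher-labelled ATP aptamer and imaged in selection buffer, then after 15 min with 500 uM ATP at 22 °C, for five cycles separated by NaOH stripping and re-annealing. The fluorescence ratio, averaged per switch-domain sequence, is each cluster's summed target-cycle Cy3 intensity over its summed buffer-cycle Cy3 intensity.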
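Further: ATP exposure 15 min at 22 °C before imaging.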

Row | Sequence | switch fluorescence ratio
1 | AGTCGAGGGG | 1.01 ± 0.02
2 | AGTCGCCTGG | 1.003 ± 0.002
3 | AGTCGGAAAG | 1.02 ± 0.015
4 | AGTCGGATGT | 0.989 ± 0.023
5 | AGTCGGGCGC | 0.983 ± 0.051
6 | AGTCGGGGGG | 0.989 ± 0.021
7 | AGTCGGTGCA | 0.9855 ± 0.0013
8 | AGTCGGTTAA | 1.02 ± 0.046
9 | AGTCGTATTT | 0.963 ± 0.019
10 | AGTCGTGCGG | 0.988 ± 0.037
11 | AGTCGTTTGC | 0.938 ± 0.061
12 | AGTCTAAATA | 1.02 ± 0.02
13 | AGTCTAGAGA | 1.015 ± 0.0095
14 | AGTCTGTAGT | 0.981 ± 0.036
15 | AGTCTTGGTG | 0.973 ± 0.018
16 | AGTGAAAGTT | 1 ± 0.012
17 | AGTGAGCTAT | 1.01 ± 0.018
18 | AGTGAGGTGC | 1.02 ± 0.01
19 | AGTGAGTCGT | 0.961 ± 0.035
20 | AGTGAGTTTT | 1.03 ± 0.024
21 | AGTGATATGA | 0.9882 ± 0.0021
22 | AGTGATTTCG | 1.01 ± 0.043

Row | Sequence | switch fluorescence ratio
23 | AGTGCCGTAA | 1.025 ± 0.0056
24 | AGTGCGGACA | 1 ± 0.051
25 | AGTGCGGGGG | 1.036 ± 0.0073
26 | AGTGCGTTTC | 0.996 ± 0.031
27 | AGTGCTAGGG | 1 ± 0.024
28 | AGTGGATTGT | 1.01 ± 0.046
29 | AGTGGCAGTG | 1 ± 0.022
30 | AGTGGGCAGG | 1.04 ± 0.02
31 | AGTGGGGCT | 0.9794 ± 0.0071
32 | AGTGGGGGTT | 0.983 ± 0.019
33 | AGTGGGGTTA | 0.999 ± 0.04
34 | AGTGGTACCG | 0.99 ± 0.024
35 | AGTGGTGGGA | 1.01 ± 0.033
36 | AGTGGTGGGC | 0.979 ± 0.056
37 | AGTGGTGGTG | 0.9902 ± 0.0039
38 | AGTGGTTTAT | 0.985 ± 0.014
39 | AGTGTACTAG | 1.045 ± 0.0022
40 | AGTGTAGAGC | 0.975 ± 0.017
41 | AGTGTCAGAA | 0.9896 ± 0.0084
42 | AGTGTCCGAT | 0.9895 ± 0.0053
43 | AGTGTCCTGG | 0.986 ± 0.013
44 | AGTGTGACAG | 0.987 ± 0.018

Row | Sequence | switch fluorescence ratio
45 | AGTGTGAGGC | 1.03 ± 0.028
46 | AGTGTGGCCT | 1 ± 0.025
47 | AGTGTGGGCA | 0.965 ± 0.026
48 | AGTGTTCGCG | 1 ± 0.015
49 | AGTGTTCGTC | 1.05 ± 0.011
50 | AGTGTTGGGT | 1.02 ± 0.01
51 | AGTGTTTGGT | 0.989 ± 0.021
52 | AGTGTTTTTG | 0.9936 ± 0.0011
53 | AGTTAAAGGT | 0.992 ± 0.023
54 | AGTTAACCGG | 1.006 ± 0.0027
55 | AGTTACGCGC | 1.04 ± 0.032
56 | AGTTACTGGG | 1.06 ± 0.046
57 | AGTTAGAGGT | 1.05 ± 0.018
58 | AGTTAGAGTC | 0.99925 ± 0.00026
59 | AGTTAGATCT | 1.005 ± 0.009
60 | AGTTAGGCAA | 1.01 ± 0.014
61 | AGTTAGTATG | 0.979 ± 0.032
62 | AGTTAGTTGT | 1 ± 0.028
63 | AGTTATGTGG | 1 ± 0.056
64 | AGTTATTATT | 0.963 ± 0.0055
65 | AGTTATTGTG | 1.04 ± 0.094
66 | AGTTCTGGCC | 1.03 ± 0.068

Row | Sequence | switch fluorescence ratio
67 | AGTTGAACCA | 1 ± 0.012
68 | AGTTGAGAGG | 0.972 ± 0.0088
69 | AGTTGAGCAA | 1.29 ± 0.048
70 | AGTTGATCCC | 1.02 ± 0.025
71 | AGTTGATTGG | 0.983 ± 0.027
72 | AGTTGCCGCG | 0.996 ± 0.012
73 | AGTTGCCTG | 0.997 ± 0.08
74 | AGTTGCGTTG | 0.996 ± 0.015
75 | AGTTGCTAAG | 0.986 ± 0.035
76 | AGTTGGAAAG | 0.977 ± 0.013
77 | AGTTGGAGTT | 0.978 ± 0.043
78 | AGTTGGGGCT | 1.01 ± 0.023
79 | AGTTGGGTCA | 0.993 ± 0.044
80 | AGTTGGGTGT | 1.01 ± 0.013
81 | AGTTGTGCGT | 0.981 ± 0.012
82 | AGTTGTTGGT | 1.01 ± 0.014
83 | AGTTGTTTG | 1.002 ± 0.0099
84 | AGTTGTTTTG | 0.998 ± 0.015
85 | AGTTTAAGAA | 0.98 ± 0.031
